Changes are numbered by the printed parent chain. Blank lines part the entries; values can stand above or below the binder they belong to.
What was measured:
[1] = target: T1, recombinant human IL-23 (hrIL-23), produced at Centocor (human, UniProt P29460 23-328); experiment: cell-based or functional assay
T1 sequence 1: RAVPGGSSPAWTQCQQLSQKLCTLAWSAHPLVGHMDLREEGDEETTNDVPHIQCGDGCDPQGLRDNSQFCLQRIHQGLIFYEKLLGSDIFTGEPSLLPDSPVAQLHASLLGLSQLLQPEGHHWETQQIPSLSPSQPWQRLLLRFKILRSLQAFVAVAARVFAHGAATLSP
T1 sequence 2: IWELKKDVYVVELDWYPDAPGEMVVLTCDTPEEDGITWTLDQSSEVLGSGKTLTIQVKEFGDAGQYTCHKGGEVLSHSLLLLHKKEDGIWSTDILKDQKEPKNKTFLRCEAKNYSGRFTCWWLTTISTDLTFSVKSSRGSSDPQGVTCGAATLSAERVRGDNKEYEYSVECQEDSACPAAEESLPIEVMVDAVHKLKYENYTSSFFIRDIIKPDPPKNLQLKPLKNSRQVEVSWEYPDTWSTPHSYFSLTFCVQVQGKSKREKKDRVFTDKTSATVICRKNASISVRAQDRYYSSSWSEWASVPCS

[2] = target: T2, recombinant human IL-12 (hrIL-12), produced at Centocor (human, UniProt P29459 23-219; P29460 23-328); experiment: ELISA, antigen in solution to immobilized Fab
T2 construct: p35-p40 heterodimer; also called hIL-12; IL-12 CNTO
T2 sequence (looked up) 1: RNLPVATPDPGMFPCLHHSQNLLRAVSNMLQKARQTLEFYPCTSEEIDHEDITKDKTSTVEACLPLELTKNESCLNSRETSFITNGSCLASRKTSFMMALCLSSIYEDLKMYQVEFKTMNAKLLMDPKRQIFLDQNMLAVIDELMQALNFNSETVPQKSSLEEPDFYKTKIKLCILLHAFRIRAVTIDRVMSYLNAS
T2 sequence (looked up) 2: T1 sequence 2

[3] = target: T3, IL-12 (R&D) (UniProt P29459 23-219; P29460 23-328); experiment: ELISA, antigen in solution to immobilized Fab
T3 construct: bought from R&D Systems; also called R&D IL-12
T3 sequence (looked up) 1: T2 sequence (looked up) 1
T3 sequence (looked up) 2: T1 sequence 2

[4] = target: T1, recombinant human IL-23 (hrIL-23), …; experiment: IL-23/IL-23R competition assay

Inhibition of IL-17 production, IC50 [1]: 0.185 µg/mL
B1: mAb MOR05034 (antibody, IgG1, V domains shown)
VH: QVELVQSGAEVKKPGSSVKVSCKASGGTFSSNYISWVRQAPGQGLEWMGIPFGAYAQKFQGRVTITADESTSTAYMELSSLRSEDTAVYYCARSKKGMYGGWTYPLMMFDLWGQGTLVTVSS
VL: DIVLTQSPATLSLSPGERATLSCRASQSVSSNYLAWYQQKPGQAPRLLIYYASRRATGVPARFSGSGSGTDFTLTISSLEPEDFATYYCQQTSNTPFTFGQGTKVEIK

Inhibition of IL-17 production, IC50 [1]: 0.336 µg/mL
B2: mAb MOR05037 (antibody, IgG1, V domains shown)
VH: B1 VH
VL: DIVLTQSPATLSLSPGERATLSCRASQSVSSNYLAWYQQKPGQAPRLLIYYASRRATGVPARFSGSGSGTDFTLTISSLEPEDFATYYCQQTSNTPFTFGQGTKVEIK

Inhibition of IL-17 production, IC50 [1]: 0.198 µg/mL
B4: mAb MOR05063 (antibody, IgG1, V domains shown)
VH: QVELVESGGGLVQPGGSLRLSCAASGFTFSSFGMSWVRQAPGKGLEWVSNISSSGSSTYYADSVKGRFTISRDNSKNTLYLQMNSLRAEDTAVYYCARYWGTPYLMQFDNWGQGTLVTVSS
VL: DIALTQPASVSGSPGQSITISCTGTSSDVGGYNSVSWYQQHPGKAPKLMIYSVSSRPSGVSNRFSGSKSGNTASLTISGLQAEDEADYYCSDVFGGGTKLTVL

binding result [2]: no binding
binding result [3]: no binding
B5: Fab MOR04658 (Fab, V domains shown)
VH: B4 VH with E3Q
VL: DIALTQPASVSGSPGQSITISCTGTSSDVGGYNSVSWYQQHPGKAPKLMIYSVSSRPSGVSNRFSGSKSGNTASLTISGLQAEDEADYYCSSYDTNKPLVVFGGGTKLTVL
notes: HuCAL Gold Fab, lambda

Inhibition of IL-17 production, IC50 [1]: 0.309 µg/mL
B6: mAb MOR05061 (antibody, IgG1, V domains shown)
VH: B4 VH
VL: DIALTQPASVSGSPGQSITISCTGTSSDVGGYNSVSWYQQHPGKAPKLMIYSVSSRPSGVSNRFSGSKSGNTASLTISGLQAEDEADYYCSSYVFGGGTKLTVL

Inhibition of IL-17 production, IC50 [1]: 0.199 µg/mL
B7: mAb MOR05062 (antibody, IgG1, V domains shown)
VH: B4 VH
VL: DIALTQPASVSGSPGQSITISCTGTSSDVGGYNSVSWYQQHPGKAPKLMIYSVSSRPSGVSNRFSGSKSGNTASLTISGLQAEDEADYYCYVFGGGTKLTVL

The remaining lines, values behind:

B3: mAb MOR05033 (antibody, IgG1, V domains shown)
VH: B1 VH with P51I, F52P
VL: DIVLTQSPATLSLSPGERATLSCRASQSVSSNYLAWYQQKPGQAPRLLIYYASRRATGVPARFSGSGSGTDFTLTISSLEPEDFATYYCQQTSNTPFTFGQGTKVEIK
Inhibition of IL-17 production, IC50 [1]: 0.283 µg/mL

B8: Fab MOR04649 (Fab, V domains shown)
VH: QVQLVQSGAEVKKPGESLKISCKGSGYSFSNYWIGWVRQMPGKGLEWMGIIDPSNSYTNYSPSFQGQVTISADKSISTAYLQWSSLKASDTAMYYCARWYYKPFDVWGQGTLVTVSS
VL: DIVLTQPPSVSGAPGQRVTISCTGSSSNIGSGYDVHWYQQLPGTAPKLLIYGNSKRPSGVPDRFSGSKSGTSASLAITGLQSEDEADYYCSSWTPSSVVFGGGTKLTVL
notes: HuCAL Gold Fab, lambda
binding result [2]: no binding
binding result [3]: no binding

B9: Fab MOR05046 (Fab, V domains shown)
VH: B8 VH with S54V, N55S, Y57W, N59K
VL: B8 VL
notes: H-CDR2 matured from 4649
IC50 [4]: 0.03 nM

B10: mAb MOR05031 (antibody, IgG1, V domains shown)
VH: QVELVQSGAEVKKPGSSVKVSCKASGGTFSSNYISWVRQAPGQGLEWMGGIIPIFGHANYAQKFQGRVTITADESTSTAYMELSSLRSEDTAVYYCARSKKGMYGGWTYPLMMFDLWGQGTLVTVSS
VL: DIVLTQSPATLSLSPGERATLSCRASQSVSSNYLAWYQQKPGQAPRLLIYYASRRATGVPARFSGSGSGTDFTLTISSLEPEDFAYYCQQTPFTFGQGTKVEIK
Inhibition of IL-17 production, IC50 [1]: 0.215 µg/mL

Source: US20070218064A1 (published 2007)
